B1: Falciparum-2: fragment of P. falciparum CS protein with repeats and Region II+ (residues 43-391) (protein)
chain: AGTNLYNELEMNYYGKQENWYSLKKNSRSLGENDDGNNNNGDNGREGKDEDKRDGNNEDNEKLRKPKHKKLKQPGDGNPDPNANPNVDPNANPNVDPNANPNVDPNANPNANPNANPNANPNANPNANPNANPNANPNANPNANPNANPNANPNANPNANPNANPNVDPNANPNANPNANPNANPNANPNANPNANPNANPNANPNANPNANPNANPNANPNANPNANPNANPNANPNANPNANPNKNNQGNGQGHNMPNDPNRNVDENANANNAVKNNNNEEPSDKHIEQYLKKIKNSISTEWSPCSVTCGNGIQVRIKPGSANKPKDELDYENDIEKKICKMEKCSS
B2: Falciparum-1: Same as Falciparum-2 minus most of Region II+ (P. falciparum residues 43-348) (protein)
chain: AGTNLYNELEMNYYGKQENWYSLKKNSRSLGENDDGNNNNGDNGREGKDEDKRDGNNEDNEKLRKPKHKKLKQPGDGNPDPNANPNVDPNANPNVDPNANPNVDPNANPNANPNANPNANPNANPNANPNANPNANPNANPNANPNANPNANPNANPNANPNANPNVDPNANPNANPNANPNANPNANPNANPNANPNANPNANPNANPNANPNANPNANPNANPNANPNANPNANPNANPNANPNKNNQGNGQGHNMPNDPNRNVDENANANNAVKNNNNEEPSDKHIEQYLKKIKNSISTEWSP

Key:
rat liver sections = assay: Staining of frozen tissue sections with recombinant CS polypeptides; format: binding; details: revealed with MAb 2A10, fluorescence; CS27IVC 50-5 μg/ml, Falciparum-2 25 μg/ml, Falciparum-1 up to 250 μg/ml
Method: The procedure was carried out essentially as described by Dukor P. et al., Proc. Natl. Acad. Sci. USA 67:991-997, 1970 and Imai Y. et al., J. Cell. Biol. 111:1225-1232, 1990. Rats were euthanized with CO2. Small pieces of the liver, spleen, heart, brain and lung were removed, snap frozen in liquid nitrogen, embedded in Tissue Tek O.C.T. (Miles, Inc., Naperville, Ill.), and cut into 5 μm sections. Sections were dried for 30 min., fixed for 10 min. in 4% paraformaldehyde, rinsed three times with phosphate-buffered saline (PBS), and either used immediately or stored at 4° C. in 1% BSA, 0.5% Tween, PBS (BSA/TPBS). After blocking with 100 mM glycine (pH 7.2) and with BSA/TPBS, the sections were sequentially incubated at 37° C. with recombinant proteins for 1 hr, 10 μg/ml MAb 2A10 for 45 min., and rat anti-mouse immunoglobulin conjugated to fluorescein isothiocyanate (Boehringer Mannheim, Indianapolis, Ind.) for 45 min. The slides were counterstained for 10 min. with 0.3% Evans blue, rinsed extensively in PBS, and finally observed under a fluorescence microscope. For peptide inhibition experiments, the sections were first incubated with the peptide at various concentrations in BSA/TPBS for 1 hour at 37° C., washed six times with BSA/TPBS, and then stained with 2.5 μg/ml CS recombinant protein as described above. In a few experiments, the tissues were fixed for 10 min. with methanol, acetone, or 4% paraformaldehyde containing 0.5% glutaraldehyde.
Frozen sections of various rat organs were incubated with recombinant CS27IVC polypeptide. […] The staining closely followed the sinusoidal spaces of the hepatic lobules, indicating CS binding to the hepatocyte membrane. Other areas of the liver sections and sections of other organs (spleen, lung, heart or brain) were not stained. Control sections (incubated with CS27IVC in the absence of antibody or vice versa) were not stained either.
To define the region of the CS that mediates the perisinusoidal staining various other recombinant constructs were also used in the frozen section assay.

[1] = test system: hepatocyte microvilli in the Space of Disse; assay: Electron immunomicroscopy of liver sections; format: binding, rat; details: MAb 2A10 and gold conjugate
Method: Rat or mouse liver tissue or hepatocyte subcellular fractions from Example 2 were fixed in PBS containing 1% glutaraldehyde (grade 1, Sigma, St. Louis, Mo.) and 4% paraformaldehyde (Kodak, Rochester, N.Y.), dehydrated in ethanol, and embedded in LR White (Polysciences, Warrington, Wash.). (Frevert et al., Infect. and Immun. 60:2349-2360, June 1992.) Normal human liver was embedded in Lowicryl K4M (Ted Pella, Redding, Calif.). Ultrathin sections were labelled by incubating them sequentially with 10-50 μg/ml CS27IVC, CSFZ (Cys), Falc-2, or Falc-1 for 30 min.; 15 μg/ml MAb 2A10 for 30 min.; protein A-gold 15 nm (PAG15, 1:30; Amersham, Arlington, Ill.) or goat anti-mouse IgG gold 10 nm (GAM10, 1:30; Amersham) for 30 min. Control specimens were incubated in the absence of CS and only with the gold conjugates. Photographs were taken with a Philips EM 301 electron microscope.
To identify the hepatocyte structures interacting with the CS, glutaraldehyde-fixed and LR White-embedded thin sections of rat liver were incubated with the recombinant CS polypeptide CS27IVC, mAb 2A10 and goat anti-mouse IgG-gold and analyzed by immunoelectron microscopy. Human liver tissue embedded in K4M was also labelled with CS27IVC followed by MAb 2A10 and protein A-gold.

[2] = Solid phase binding assay, sulfatide; details: lipid dried into microtiter wells
Method: (§1) Solid phase binding assays: Thirty μl of lipids or steroids dissolved in methanol (20-250 μg/ml) were dried into wells of microassay plates (Cat.# 3911—Falcon—Oxnard, Calif.). The plates were then blocked with 1% BSA/PBS pH 7.4 (BSA/PBS) for 30 minutes. Wells were incubated with recombinant protein (or with parasite extract) in PBS/BSA for 1 hour, washed 3 times with BSA/PBS, incubated for 1 hour with monoclonal antibodies 2F2 or 2A10 in BSA/PBS, washed 3 times, and then incubated with (10^5 cpm/well) ^125I protein A (Amersham Corp., Arlington Hts., Ill.). In the case of the P. berghei CS protein, wells were incubated with ^125I labelled mAb 3D11. Wells were washed again and the bound radioactive protein was counted in an LKB gamma-counter (model #1260, Pharmacia, Inc., Gaithersburg, Md.). For inhibition assays, the recombinant proteins were mixed with dilutions of the various polymers in BSA/PBS, the mixture was loaded into the wells of the microtiter plates, and the binding assay performed as above. See also, Roberts, et al. J. Biol. Chem. 260:9405-9411, 1985.
(§2) 1.4 nmol of sulfatide (open squares), cholesterol-3-sulfate (closed triangles), galactocerebroside I (closed circles), galactocerebroside II (open circles) and cholesterol (open triangles) were evaporated into microtiter wells and then incubated with serial dilutions of Vivax-2. […]

[3] = Solid phase binding assay, cholesterol-3-sulfate; details: steroid dried into microtiter wells
Method: as §1, §2

Molecule | binding (staining) to frozen liver sections (rat liver sections) | gold labelling of liver sections [1] | binding to sulfatide [2] | binding to cholesterol-3-sulfate [3]
B1 | bound to the liver sections | essentially the same results but with lower staining intensity | specifically bound sulfatide | bind
B2 | did not bind | negative | did not bind | did not bind

— US20030119733A1, “Compositions and methods for inhibiting hepatocyte invasion by malarial sporozoites” (New York University, priority 1992, published 2003)
